For the experiment, the target named is MK-3475-596 (MK-3475 derivatized with fluorescent dye Dylight-596) (Dylight-596 amine-reactive dye, reacts preferentially with the primary amine of lysine residues (sites not given)). Nature of the experiment: FRET between Dylight-488 labelled Ab6 and Dylight-596 labelled MK-3475, recorded for 72 hours (ex 488 nm, em 620 nm). The protocol:
Dylight-488® or Dylight-596® are amine-reactive dyes, which react preferentially with the primary amine of lysine residues. […] Due to the sensitivity of the assay, the molar concentration of the fluorogenic tagged proteins is either 3.2 uM or 800 nM depending on the protein ratio. FRET fluorescence signals are recorded for 72 hours at λₑₘ=620 nm (λₑₓ=488 nm) (FIG. 49).
If protein interaction occurs, we expect to see a growth of the fluorescence signal as a function of time (FIG. 49). The interaction is evaluated by the rate of growth of the fluorescence and the maximum of the fluorescence signal. The absence of interaction (or a reduced interaction) is characterized by i) a low rate of the growth of the fluorescence signal, and ii) a low plateau maximal. […] The fluorescence baseline is measured in the absence of labeled protein.

MK-3475-596 (MK-3475 derivatized with fluorescent dye Dylight-596) (Dylight-596 amine-reactive dye, reacts preferentially with the primary amine of lysine residues (sites not given)), sequence (VH, as listed by the source, chain 1 of 2): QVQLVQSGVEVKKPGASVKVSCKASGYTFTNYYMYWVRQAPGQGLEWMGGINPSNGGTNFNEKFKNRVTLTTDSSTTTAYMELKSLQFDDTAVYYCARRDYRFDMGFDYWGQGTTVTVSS
MK-3475-596 (MK-3475 derivatized with fluorescent dye Dylight-596) (Dylight-596 amine-reactive dye, reacts preferentially with the primary amine of lysine residues (sites not given)), sequence (VL, as listed by the source, chain 2 of 2): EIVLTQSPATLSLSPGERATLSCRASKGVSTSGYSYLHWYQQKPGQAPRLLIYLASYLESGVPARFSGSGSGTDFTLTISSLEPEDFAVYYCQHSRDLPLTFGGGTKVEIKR

B1: Ab6-488 (Ab6 derivatized with fluorescent dye Dylight-488) (antibody, human IgG4 S228P, kappa, V domains shown)
VH: QMQLVQSGPEVKKPGTSVKVSCKASGYTFTDYNVDWVRQARGQRLEWIGDINPNDGGTIYAQKFQERVTITVDKSTSTAYMELSSLRSEDTAVYYCARNYRWFGAMDHWGQGTTVTVSS
VL: DIVMTQTPLSLSVTPGQPASISCKASQSLDYEGDSDMNWYLQKPGQPPQLLIYGASNLESGVPDRFSGSGSGTDFTLKISRVEAEDVGVYYCQQSTEDPRTFGGGTKVEIKR
modifications: Dylight-488 amine-reactive dye, reacts preferentially with the primary amine of lysine residues (sites not given)
Consider B1, for which the binding result is “no binding”.

The values above are taken from patent US20220002410A1 (Merck Sharp & Dohme, published 2022).
